± gives the standard deviation of the averaged measurements.
Tested on: ATP
Assay: switch fluorescence ratio, 500 uM ATP over buffer (Cy3 cluster intensity, sum of 5 cycles each) (fold (ratio)); higher = stronger signal-on switching upon ATP binding; sequences stand for … in TCGTCGGCAGCGTCAGATGTGTATAAGAGACAGTTTTTTTTTTTTTTTTTTTTTTTTT…TC
Settings: aptamer strand: ATP DNA aptamer (quencher-CACCTGGGGGAGTATTGCGGAGGAAGG + anchor), 100 nM annealed; ATP concentration: 500 uM
Procedure, shortened: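 Values give the fluorescence ratio for each switch-domain sequence, averaged from per-cluster ratios of summed target-cycle to summed buffer-cycle Cy3 intensity. The Cy3-labelled switching-strand clusters sat on a modified Illumina MiSeq flow-cell, were annealed to 100 nM quencher-labelled ATP aptamer, and were imaged in selection buffer, then after 15 min with 500 uM ATP at 22 °C. Five cycles ran with NaOH stripping and re-annealing between them, and clusters outside 100-1000 RFU were excluded.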
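Also: ATP exposure 15 min at 22 °C before imaging.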

Row | Sequence | switch fluorescence ratio
1 | TACGGAACGG | 1.07 ± 0.029
2 | GCTCGTAACT | 1 ± 0.0065
3 | TTGGTTTCGT | 1.022 ± 0.0059
4 | GGGTTTCAAT | 0.9372 ± 0.0067
5 | CGGGGGGTTG | 0.984 ± 0.033
6 | TGGGAGAAAA | 1.0069 ± 0.00087
7 | GCGATGCTGC | 1.24 ± 0.08
8 | TGAGTGGGTC | 1.03 ± 0.013
9 | AAGAAACGGG | 1.025 ± 0.008
10 | AAATGCCGAT | 0.992 ± 0.015
11 | TCATGGAATT | 1 ± 0.031
12 | TGGCTCAGGC | 1 ± 0.025
13 | CCAGTCTGTA | 0.9492 ± 0.0057
14 | ACTAAGGGCG | 1.09 ± 0.019
15 | TGGGCTATTT | 0.964 ± 0.017
16 | AGGGGGGCCG | 1.08 ± 0.019
17 | CCGGATTAA | 1.02 ± 0.039
18 | CAATGTGTCT | 1 ± 0.033
19 | TTCACTTTTT | 1 ± 0.012
20 | TAAGGGAACC | 1.01 ± 0.044
21 | ACCACCGTTG | 1.113 ± 0.0039
22 | TATTGTTCGC | 0.98 ± 0.046
23 | GATTCTTTAC | 1.03 ± 0.029
24 | TCTCGTCTCT | 1.04 ± 0.028
25 | CTATGATTGT | 0.977 ± 0.04

Row | Sequence | switch fluorescence ratio
26 | AAAGCCGTAG | 1.003 ± 0.0082
27 | AGTAAGAGGG | 1.01 ± 0.012
28 | ATTAGGTACG | 1.02 ± 0.038
29 | GGGGTTTGG | 1.004 ± 0.0067
30 | GAGTATAAGC | 0.9844 ± 0.0069
31 | TTGGTACTGC | 1.03 ± 0.027
32 | TTTAGAATAC | 1.51 ± 0.42
33 | GGTTCAAGGG | 0.984 ± 0.02
34 | GGGCGGCACG | 0.966 ± 0.054
35 | AGGGATAGTT | 0.992 ± 0.0047
36 | TCGGGATGGC | 1.03 ± 0.024
37 | CGCACGGGTC | 1.11 ± 0.038
38 | CAGTGCGTGG | 0.988 ± 0.017
39 | ATACATAACG | 1.38 ± 0.052
40 | GCGACAGGGT | 1.023 ± 0.0055
41 | ATAAGGATAG | 1 ± 0.011
42 | TTAAGGGAAG | 1.02 ± 0.036
43 | CATGGTAAGT | 0.994 ± 0.053
44 | ACACCTTTTT | 1.04 ± 0.032
45 | TTTAATCACC | 1.02 ± 0.02
46 | GAGTTGACGG | 1.03 ± 0.013
47 | CCGTAATGGG | 1.85 ± 0.038
48 | GGAAGTAAAA | 1.03 ± 0.076
49 | TCGGGGTTCA | 1.04 ± 0.03
50 | TTTGGGGTTG | 0.999 ± 0.037

Row | Sequence | switch fluorescence ratio
51 | TTAAGTTGCA | 1.05 ± 0.028
52 | TTTTGTTGGC | 1.04 ± 0.035
53 | CAGGAAAGCT | 1.234 ± 0.0051
54 | TTGATGGATG | 1.04 ± 0.09
55 | AGAGACAGCT | 0.994 ± 0.05
56 | TTGCGACGCT | 1.17 ± 0.13
57 | TCTGGTTTTT | 1.01 ± 0.015
58 | GTGTGACTCG | 1.03 ± 0.062
59 | AGCAGGAGGA | 1 ± 0.031
60 | GGGGTTTCTG | 0.986 ± 0.03
61 | GCTAAAGGCA | 0.986 ± 0.043
62 | ACGTCGCCGG | 0.987 ± 0.038
63 | CTGTTGGGAA | 1.04 ± 0.091
64 | TCATACCGTA | 1.09 ± 0.022
65 | TAGAGCATTG | 1 ± 0.044
66 | CTAGCTTAGC | 0.9902 ± 0.0056
67 | CGGCAGGGTG | 1.05 ± 0.0092
68 | AAAGAAAGAT | 1.08 ± 0.17
69 | TGCTAGCCTC | 0.9724 ± 0.004
70 | AAAACTTAGA | 0.956 ± 0.041
71 | TAAACGGGGA | 0.986 ± 0.057
72 | AAAGTTGTCT | 1.01 ± 0.028
73 | ATTGGCCGCC | 0.991 ± 0.042
74 | CGAGGGGCTG | 1.03 ± 0.013
75 | GGGCTTTCTG | 0.98 ± 0.05

Row | Sequence | switch fluorescence ratio
76 | GGCGTAATAT | 1.54 ± 0.085
77 | GTGGGGGAAG | 0.993 ± 0.039
78 | GTGGAAAATT | 0.987 ± 0.018
79 | CGCCTGGGAT | 1.03 ± 0.0027
80 | CGGTTTAGGA | 0.988 ± 0.028
81 | GACAGCGGGT | 1.01 ± 0.015
82 | AGGGCATTCT | 0.9837 ± 0.0017
83 | ACGAGTTCCC | 1.01 ± 0.043
84 | GGGGTAAGTG | 0.987 ± 0.04
85 | ACGACGAAGG | 1.06 ± 0.083
86 | TGTGTGACAC | 0.998 ± 0.026
87 | ACGCTGTTGG | 1.01 ± 0.035
88 | AGTAGGCGGT | 0.993 ± 0.023
89 | TTAGGTTTTG | 1.02 ± 0.061
90 | GTTTCATTTT | 1.01 ± 0.012
91 | TTTTGAAGAT | 1.009 ± 0.01
92 | CGGTTGACGT | 1.01 ± 0.013
93 | AAGGGGGAGT | 0.996 ± 0.028
94 | CTCACTAGCG | 1.02 ± 0.031
95 | GTTGGAGGGG | 0.985 ± 0.03
96 | TTAGTACCCT | 1.06 ± 0.043
97 | ATCATGCGCT | 0.9964 ± 0.0092
98 | TCGGCCATGG | 0.985 ± 0.031
99 | AAATGGTGTA | 0.983 ± 0.028
100 | GTCGAGGGGC | 0.968 ± 0.049

Row | Sequence | switch fluorescence ratio
101 | TTAGTACCCA | 1.03 ± 0.0032
102 | CTCGCATGGT | 1.37 ± 0.024
103 | ATTTACTTCT | 1.04 ± 0.015
104 | AGGCCCATGT | 1.02 ± 0.012
105 | CTCTAAGGC | 1.094 ± 0.0084
106 | GATTAATGTT | 1 ± 0.022
107 | TAGCGGCGGC | 1.01 ± 0.016
108 | GACTGAGAAG | 0.945 ± 0.011
109 | TTAAGTGGCT | 1.016 ± 0.0095
110 | TGCTAGGGGT | 1.41 ± 0.051
111 | GCGCATAAGG | 1.039 ± 0.0057
112 | ATATGCTGTA | 0.989 ± 0.032
113 | GGGGATAGGG | 0.985 ± 0.016
114 | TGGTTGGGCC | 0.985 ± 0.06
115 | GGCAGAGTGT | 1 ± 0.063
116 | TCCTTTAATG | 0.9917 ± 0.0073
117 | CCAATTTGCT | 1.02 ± 0.056
118 | TACGGGCGTC | 1 ± 0.028
119 | TAGGGTTGGC | 0.969 ± 0.013
120 | TGCCCGTACG | 1 ± 0.033
121 | TAGGGTTTTT | 1.03 ± 0.038
122 | CCCTGGCAGC | 1.3 ± 0.019
123 | CATTCTACGT | 1.04 ± 0.018
124 | CGGGTTTTAT | 1.01 ± 0.028
125 | CGTATAGCGG | 1.02 ± 0.076

Row | Sequence | switch fluorescence ratio
126 | TGTTTAAGGT | 0.9871 ± 0.0045
127 | GGGTAGCCGG | 1 ± 0.0042
128 | GGAAGAGGGG | 0.991 ± 0.016
129 | TGGATTTGGT | 0.988 ± 0.012
130 | TCCTGGGCTA | 1.57 ± 0.019
131 | TTTGTTTGTA | 1.01 ± 0.017
132 | CAGTGTGGTG | 1 ± 0.049
133 | CTGTCGGGTT | 1.03 ± 0.04
134 | CATCTAGGGC | 1.04 ± 0.028
135 | GGATTTGGTT | 1.04 ± 0.036
136 | GCGGTTTAAG | 1 ± 0.013
137 | TTGCTGGCCG | 1.03 ± 0.026
138 | CATGCGTTG | 0.9898 ± 0.0016
139 | GCGAGGACAT | 1.04 ± 0.012
140 | GGTGCTTTTT | 0.987 ± 0.023
141 | TGGGCCCGGC | 1.02 ± 0.053
142 | TGGGATATAG | 0.994 ± 0.022
143 | AACGATTGGC | 1.08 ± 0.018
144 | CATATGGGGG | 1.02 ± 0.046
145 | CTTCGGTGTT | 0.9967 ± 0.0085
146 | ATCCCCGGCC | 1.03 ± 0.022
147 | AAACTGTTTC | 1.02 ± 0.016
148 | AGGGGATTC | 1.002 ± 0.0075
149 | TGGGAAAGGA | 1.01 ± 0.051
150 | CATCGGTCTT | 0.958 ± 0.039

Row | Sequence | switch fluorescence ratio
151 | AGTGATTTCG | 1.01 ± 0.043
152 | TTAGGGAAGT | 0.991 ± 0.031
153 | CTGGACCTTG | 0.977 ± 0.026
154 | GGCTAAGAAT | 1.03 ± 0.058
155 | AAATTGGTTG | 0.976 ± 0.014
156 | TTTTGATGGG | 0.981 ± 0.055
157 | GGCCAGGGGG | 1 ± 0.09
158 | TTGGATGTGT | 0.9407 ± 0.001
159 | TGGTGAGATC | 0.965 ± 0.0039
160 | CGTATCAAAC | 1.23 ± 0.049
161 | TCTTGGGCCG | 1.03 ± 0.061
162 | TTAAGAGGGT | 0.997 ± 0.015
163 | TGTTATATTA | 1.01 ± 0.034
164 | GGGTTATTCT | 1.01 ± 0.049
165 | TTCTATGCAT | 1.14 ± 0.13
166 | TTTTTCAATT | 0.982 ± 0.017
167 | GATTTAAAGG | 1.04 ± 0.025
168 | ATTTAAATTG | 1.02 ± 0.052
169 | TCAGGATTGA | 0.98 ± 0.036
170 | GGGGCTTCTT | 0.9823 ± 0.0038
171 | AACGGGGGTC | 1 ± 0.043
172 | ATGTTGTCTC | 1.001 ± 0.0079
173 | AGGGGTAGTT | 1.01 ± 0.029
174 | TAGGGTTCAA | 0.989 ± 0.02
175 | AAACTGGAAA | 0.99 ± 0.016

Row | Sequence | switch fluorescence ratio
176 | CTAGTTTTTT | 0.9893 ± 0.0062
177 | AGGTACGGGG | 0.971 ± 0.012
178 | ATTTATTTTA | 1.01 ± 0.012
179 | TCGCTTTGCT | 1.31 ± 0.42
180 | TCAAAATTTA | 1.02 ± 0.048
181 | CCTAATGCAG | 1.11 ± 0.049
182 | TTCCATGTCG | 0.958 ± 0.02
183 | GGTAGCGGGG | 1.02 ± 0.014
184 | TTGGGGGCCT | 1.04 ± 0.06
185 | GGGGTGTGAA | 1.03 ± 0.059
186 | ATATTGTTGG | 0.972 ± 0.031
187 | CGTGTTAATG | 0.989 ± 0.037
188 | CTCAATGACT | 1.02 ± 0.016
189 | GTCATCTGGG | 0.982 ± 0.017
190 | AATCGGTTTG | 0.987 ± 0.029
191 | ATTTGGTGCG | 1.01 ± 0.036
192 | TGGGGGCGTT | 1 ± 0.034
193 | ACATTACACA | 1.4 ± 0.25
194 | GTTTGGGGCA | 0.994 ± 0.033
195 | TTACTATTCT | 1.001 ± 0.0063
196 | ATATGTGGTG | 1.02 ± 0.028
197 | TATCCAAGTT | 0.999 ± 0.013
198 | GGGGCAAAGG | 1.03 ± 0.075
199 | TTATTTTTAT | 0.998 ± 0.018
200 | ATCGTTTATT | 0.99436 ± 0.00033

Source: the supplement of paper PMC10126150
